The record followed here is patent publication US6187552A, “Method for identifying inhibitors of JAK2/cytokine receptor binding” (Pharmacia & Upjohn Company, priority 1998, dated 2001).

In the assay the target is JAK2 (Homo sapiens, UniProt O60674). Briefly: SPA: binding of 3H-JAK2 to βc peptides on streptavidin-coated beads. The arrangement: NJAK2 = N-terminal 294 residues. As to the method:
Cells were lysed by dounce homogenization (20 strokes) in 1X phosphate buffered saline (PBS), pH 7.5 at 4 C. […] For some experiments, the JAK2 protein (0.15 mg/ml), aliquoted into 7 equivalent tubes, was then subjected to ultracentrifugation in an Airfuge using an A-110 rotor at an average of 164,000×g for a period of 6 hours at ambient temperature. At zero time, and at each subsequent hour thereafter, a tube of JAK2 was removed for analyses (ELISA, SDS polyacrylamide gel electrophoresis, and Western blotting).
Three different labeling reactions were done using ^3 H-N-succinimidyl propionate (^3 H-NSP, Amersham Life Sciences, Arlington Heights, Ill.). One reaction was done using 0.5 mg of purified JAK2 in 0.1 M borate buffer, pH 8.5, with a reaction volume of 150 μl and an incubation time of one hour on ice with dried 1 mCi of ^3 H-NSP (toluene was removed using a stream of nitrogen). […] Another reaction was done using the buffer 0.1 M sodium phosphate, pH 8.0, and a similar volume as before. One milligram of JAK2 in 1.2 ml of phosphate buffer was incubated for three hours on ice. […] A third reaction was done using 2.5 mg of purified JAK2 in 0.1 m sodium phosphate, pH 8.0, and 2.5 ml volume. It was incubated with 5 mCi of dried ^3 H-NSP on ice for 2 hours. […] All three products were separated from unincorporated label using PD-10 columns (Pharmacia Biotech, Uppsala, Sweden) pre-equilibrated with 20 mM Tris, pH 8.0, 0.15 M NaCl.
Triplicate reactions were done for each data point. The buffer used in all the assays was 35 mM sodium phosphate, 150 mM NaCl, pH 8.0, 10% glycerol. Biotinylated peptides were allowed to bind to streptavidin-coated SPA beads (Amersham Life Sciences, Arlington Heights, Ill., catalog # RPNQ0006) with either less than saturating peptide or excess peptide. […] Under less than saturating conditions, beads and 40 pmole peptide were added to the assay plate well and incubated for one hour with gentle shaking on a Titer plate shaker (Lab-Line Instruments, Inc., Melrose Park, Ill.) at 600 rpm and not washed. […] The plates were then read on a MicroBeta (Wallac) set to read scintillation due to tritium.
Either ^3 H-JAK2 or ^3 H-NJAK2 was added to the wells and, after incubation, the signals measured. […] A competition reaction was also done by adding 5 to 10-fold excess unlabeled JAK2 in those reactions.

JAK2, sequence (O60674 3-1132): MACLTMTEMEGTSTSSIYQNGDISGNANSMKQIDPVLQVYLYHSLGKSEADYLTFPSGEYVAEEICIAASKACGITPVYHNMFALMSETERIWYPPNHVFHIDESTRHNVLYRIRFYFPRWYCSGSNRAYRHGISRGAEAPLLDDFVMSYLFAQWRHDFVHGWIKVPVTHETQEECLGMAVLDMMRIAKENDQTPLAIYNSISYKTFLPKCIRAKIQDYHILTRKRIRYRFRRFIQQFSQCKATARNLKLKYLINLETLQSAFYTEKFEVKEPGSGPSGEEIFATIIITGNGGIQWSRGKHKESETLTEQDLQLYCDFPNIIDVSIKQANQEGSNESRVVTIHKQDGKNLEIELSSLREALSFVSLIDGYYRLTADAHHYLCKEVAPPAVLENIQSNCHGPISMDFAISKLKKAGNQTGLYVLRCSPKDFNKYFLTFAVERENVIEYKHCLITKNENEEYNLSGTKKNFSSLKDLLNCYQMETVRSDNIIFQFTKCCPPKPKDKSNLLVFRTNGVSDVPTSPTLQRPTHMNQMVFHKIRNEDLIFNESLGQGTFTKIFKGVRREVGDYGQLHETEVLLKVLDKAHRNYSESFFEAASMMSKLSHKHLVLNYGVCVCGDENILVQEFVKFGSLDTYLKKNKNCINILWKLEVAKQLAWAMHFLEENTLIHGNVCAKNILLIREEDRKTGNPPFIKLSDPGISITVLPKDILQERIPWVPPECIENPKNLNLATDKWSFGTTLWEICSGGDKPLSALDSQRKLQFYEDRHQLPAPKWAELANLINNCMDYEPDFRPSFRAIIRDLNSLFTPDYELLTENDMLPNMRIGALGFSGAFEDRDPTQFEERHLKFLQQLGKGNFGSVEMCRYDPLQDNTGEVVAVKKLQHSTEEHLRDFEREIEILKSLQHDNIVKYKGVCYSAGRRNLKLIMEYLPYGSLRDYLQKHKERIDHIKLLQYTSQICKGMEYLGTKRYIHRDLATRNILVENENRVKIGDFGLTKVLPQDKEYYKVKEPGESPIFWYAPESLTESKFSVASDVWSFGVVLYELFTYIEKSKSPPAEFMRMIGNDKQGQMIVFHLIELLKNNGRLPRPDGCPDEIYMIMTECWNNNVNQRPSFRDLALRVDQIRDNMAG

Consider “GIYGYRLRRKWEEKIPNPSKSHLFQNGSAELWP [peptide 4, βc peptide, N-terminal truncation]”, for which the “binding in the SPA, comparison of peptides” value was “binds better than peptide 3” and the “suitability in the SPA” value is listed as “two most optimal”. In addition, the signal-to-noise ratio (40 pmole (0.17 μg) peptide per reaction, without optimization) is 4.5. Further, the “signal to noise ratio” value (5.5 nM JAK2, κ-casein present, FIG. 17B) was 14. Moreover, the signal-to-noise ratio (BSA 0.1 mg/ml or 0.5 mg/ml (either concentration), FIG. 16) was found to be 5. Moreover, the signal-to-noise ratio (BSA experiment, no additions, FIG. 16) came out at 4. Further, the “amount of JAK2 at which binding reaches saturation” value (binding curve, peptide 4, FIG. 17A) is “about 40 pmole”. Moreover, the “apparent Kd” value (binding curve, varying labeled JAK2, FIG. 17A) is given as “very low apparent Kd”. The signal-to-noise ratio (excess peptide, no κ-casein, FIG. 15) amounted to 10. Also, the signal-to-noise ratio (excess peptide, κ-casein 1 mg/ml during peptide binding to beads, FIG. 15) was 35. Moreover, the “strength of binding (linear increase with JAK2)” value (less than saturating JAK2, FIG. 17B) is given as “very strong”. The “activity profile in binding 3H-JAK2 (signal)” value (less than saturating peptide, 40 pmole per reaction, 3H-JAK2, FIG. 12A) is “peptide 4>peptide 3>peptide 5>peptide 6>peptides 1 and 2”. Moreover, the “overall signals and signal-to-noise ratios, peptide and labeled JAK2 mixed prior to adding beads” value (mixed one hour before beads, versus peptide bound to bead first, FIG. 13) was “lower overall signals and signal-to-noise ratios”. Besides, the “activity profile, peptide and labeled JAK2 mixed prior to adding beads” value (mixed one hour before beads, FIG. 13) is given as “same activity profile”.
